Blank lines part the entries; values can stand above or below the substance they belong to.
Experiments:
[1] = molecular target: r-synGAP-α1 (soluble, recombinant synGAP-α1, residues 103-1293) (rat); test: SPR; 'competition in solution': 25 nM r-synGAP-α1 pre-equilibrated with 0-10 µM soluble PDZ domain; free r-synGAP-α1 captured on the same PDZ domain amine-coupled to a CM5 chip; Biacore T200, HBS-EP+, 25°C; single-site fit
[2] = molecular target: r-synGAP-α1 (soluble, recombinant synGAP-α1, residues 103-1293) (rat)
[3] = molecular target: r-synGAP-α1 (soluble, recombinant synGAP-α1, residues 103-1293) (rat); test: pull-down; as a1, with or without Ca2+/CaM during the incubation with PDZ resin (legend: 0.7 mM CaCl2/3.4 μM CaM; methods: 2.5 µM CaM and 0.5 mM CaCl2); 500 nM r-synGAP-α1, 60 min, 25°C
[4] = molecular target: PDZ3 of PSD-95 (residues 302-402), soluble recombinant (mouse) (UniProt Q62108); test: SPR; conventional Biacore assay: varying concentrations of r-synGAP-α1 applied to a chip with immobilised PDZ domain; one experiment
[5] = molecular target: CaM-Sepharose 4B (calmodulin on Sepharose resin) (UniProt P62157); test: pull-down; equilibrium binding of purified synGAP (1-500 nM, 300 µl) to 50 µl CaM-Sepharose 4B, 60 min; 50 mM Tris pH 7.5, 200 mM NaCl, 5 mM TCEP, 2 mM CaCl2; bound protein by quantitative immunoblot; hyperbolic fit
[6] = molecular target: PDZ123 domain-HaloTag fusion on HaloLink resin (PDZ123 affinity resin) (mouse) (UniProt Q62108); test: pull-down; PDZ domain-HaloTag fusions on HaloLink resin (20 µl); r-synGAP-α1 500 nM, 200 µl, 60 min, 25°C; 25 mM Tris pH 7.0, 150 mM NaCl, 1 mM MgCl2, 0.5 mM TCEP, 0.2% Tergitol, 0.5 mM EDTA; bound protein eluted, SDS-PAGE, Gel Code Blue, quantified
[7] = molecular target: calmodulin (CaM), with Ca2+ (UniProt P62157); test: SPR; CaM amine-coupled to a CM5 chip (50 RU); synGAP injected in HBS-EP+ with 10 mM CaCl2, 25°C, 100 µl/min; equilibrium analysis
[8] = molecular target: PDZ123 domain-HaloTag fusion on HaloLink resin (PDZ123 affinity resin) (UniProt Q62108); test: PDZ123 affinity resin binding (pull-down, eluate quantified); settings: phosphorylated 0.5 min with 10 nM CaMKII, 0.7 mM CaCl2/3.4 μM CaM; resin 60 min at 25°C; n = 4; parent: est. 0.0079; read off a plot

- Kd [1]: 1500 nM
Substance: PDZ2 of PSD-95 (residues 155-249), soluble recombinant (from UniProt Q62108 155-249) (domain or fragment)

- Kd [1]: 620 nM
Substance: PDZ3 of PSD-95 (residues 302-402), soluble recombinant (from UniProt Q62108 302-402) (domain or fragment)

- rate and stoichiometry of phosphorylation of r-synGAP-α1 by CDK5/p35 or CDK5/p25 in the presence of Ca2+/CaM (0.7 mM CaCl2, 3.4 μM CaM) [2]: 2 fold
- percent reduction of binding of r-synGAP-α1 to PDZ3 with Ca2+/CaM [3]: 25%
Substance: calmodulin (CaM), with Ca2+ (from UniProt P62157 1-149) (natural protein)

- Kd [4]: 730 nM
- Kd [5]: 31 nM
- amount bound per individual PDZ domain, relative to PDZ1 or PDZ2 alone [6]: 4 fold
- amount bound per individual PDZ domain, relative to PDZ3 alone [6]: 2 fold
- Kd [7]: 9 nM
Substance: r-synGAP-α1 (soluble, recombinant synGAP-α1, residues 103-1293) (domain or fragment)

- response (pmol r-synGAP-α1/pmol PDZ domain) [8]: 0.0083
Substance: r-synGAP-α1 phosphorylated by CaMKII for 0.5 min S1093D; S1123D

- response (pmol r-synGAP-α1/pmol PDZ domain) [8]: 0.014
Substance: r-synGAP-α1 phosphorylated by CaMKII for 0.5 min S1093D; S1123D; S1283D

- response (pmol r-synGAP-α1/pmol PDZ domain) [8]: 0.0099
Substance: r-synGAP-α1 phosphorylated by CaMKII for 0.5 min S1123D

- response (pmol r-synGAP-α1/pmol PDZ domain) [8]: 0.011
Substance: r-synGAP-α1 phosphorylated by CaMKII for 0.5 min S1283D

- decrease of binding relative to unphosphorylated r-synGAP-α1 [6]: 40%
Substance: r-synGAP-α1 phosphorylated by PLK2 for 10 min (domain or fragment)
